From US12540161B2, “Linkers” (BicycleTx Limited, priority 2020, dated 2026)

Legend:
in vitro = conditions: human, plasma, pH 7.4
Description: Pooled frozen plasma was thawed in a water bath at 37° C. Plasma was centrifuged at 4000 rpm for 5 min and the clots were removed if any. The pH will be adjusted to 7.4±0.1 if required. 1 mM stock solution was prepared with DMSO. Propantheline (positive control) was prepared by making a 100 μM working solution by diluting 5 μL of the stock solution (10 mM) with 495 μL ultra pure water. 100 μM working solutions of test compounds were made up by diluting 10 μL of the stock solution (1 mM) with 90 μL DMSO. 98 μL of blank plasma was spiked with 2 μL of dosing solution (100 μM) to achieve 2 μM of the final concentration in duplicate and samples were incubated at 37° C. in a water bath. At each time point (0, 1, 2, 4, 6 and 24 hr), 400 μL of 200 ng/mL tolbutamide and labetalol in 100% MeOH was added and mixed thoroughly to precipitate proteins. Sample plates were centrifuged at 4,000 rpm for 15 min. An aliquot of supernatant (150 μL) was transferred from each well before submitting for LC-MS/MS analysis.
The % remaining test compound after incubation in plasma was calculated using following equation: Remaining=100×(PAR at appointed incubation time/PAR at T0 time)
where PAR is the peak area ratio of analyte versus internal standard (IS).
The appointed incubation time points are T0 (0 hr), Tn (n=0, 1, 2, 4, 6, 24 hr). The half-life (T½) was calculated from a log linear plot of concentration versus time.
When the % remaining value at the maximal incubation time, which was 24 hr in this study, was higher than 75%, it is considered to be within the acceptable experimental variation.

in vivo = conditions: rat, plasma
[1] = Plasma stability analysis, mouse plasma; conditions: plasma, BTCs

Compound: CC[C@H](C)[C@@H]([C@@H](CC(=O)N1CCC[C@H]1[C@H](OC)[C@@H](C)C(=O)N[C@H](C)[C@@H](O)c1ccccc1)OC)N(C)C(=O)[C@@H](NC(=O)[C@H](C(C)C)N(C)C(=O)OCc1ccc(NC(=O)[C@H](CCCNC(N)=O)NC(=O)[C@H](Cc2cccc3ccccc23)NC(=O)[C@H](CCC(=O)O)NC(=O)Cn2cc(CCC(=O)NCCC(=O)N(C)CC(=O)N(C)CC(=O)N(C)CC(=O)N(C)CC(=O)N(C)CC(=O)N(C)CC(=O)N(C)CC(=O)N(C)CC(=O)N(C)CC(=O)N(C)CC(=O)N[C@@H](C)C(=O)N[C@H]3CN(C)Cc4cc5cc(c4)CN(C)C[C@@H](C(N)=O)NC(=O)[C@H](C(C)(C)C)NC(=O)[C@H](CC(=O)O)NC(=O)[C@H](Cc4ccc(O)cc4)NC(=O)[C@H](Cc4ccccc4)NC(=O)[C@H](CC(=O)O)NC(=O)[C@H](CCC(=O)O)NC(=O)[C@H](CSC5)NC(=O)[C@@H](C)NC(=O)[C@H](Cc4cccc5ccccc45)NC(=O)[C@H](CCC(=O)O)NC(=O)[C@H](CC(N)=O)NC(=O)[C@@H](C)NC3=O)nn2)cc1)C(C)C [BCY10984, MMAE-PAB-(Cit-1Nal-Glu)-BCY3900]
- half-life at 2 μM (in vitro): > 57.8 h
- half-life (in vivo): 1.83 h
- half-life at 2 μM ([1]; pH 7.4, Mouse plasma t1/2 (EDTA), EDTA anticoagulant): > 57.8 h
- half-life at 2 μM ([1]; pH 7.4, Mouse plasma t1/2 (Herparin), heparin anticoagulant): 47.5 h
